Data taken from patent US20210388087A1 (Chugai, published 2021).
Where a chain is given by its changes, count along the chain named. Values belong to the binder of their own block, whether it stands above or below them.

Target: T1, CD3 epsilon homodimer protein (UniProt P07766 23-126)
T1 construct: also called CD3 (CD3 epsilon)
Experiment: SPR, CD3 epsilon homodimer on chip, one-arm antibody as analyte;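 note: surface plasmon resonance at 25 °C with CD3 epsilon homodimer amine-coupled to a CM4 sensor chip, antibody injected as analyte, HBS-EP+ as running buffer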

T1 sequence (P07766 23-126): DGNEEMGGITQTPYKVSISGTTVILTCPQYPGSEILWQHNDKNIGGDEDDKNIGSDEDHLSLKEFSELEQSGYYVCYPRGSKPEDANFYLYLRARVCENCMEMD

KD ratio (KD of CE115HA000/KD of altered form): 0.73
B1: CE115HA000 D72E (antibody, human IgG1, kappa, L234A L235A, N297A, name in Kabat numbering)
heavy: QVQLVESGGGVVQPGRSLRLSCAASGFTFSNAWMHWVRQAPGKGLEWVAQIKAKSNNYATYYAESVKGRFTISREDSKNSLYLQMNSLKTEDTAVYYCRYVHYGAYYGVDAWGQGTTVTVSSASTKGPSVFPLAPSSKSTSGGTAALGCLVKDYFPEPVTVSWNSGALTSGVHTFPAVLQSSGLYSLSSVVTVPSSSLGTQTYICNVNHKPSNTKVDKKVEPKSCDKTHTCPPCPAPEAAGGPSVFLFPPKPKDTLMISRTPEVTCVVVDVSHEDPEVKFNWYVDGVEVHNAKTKPREEQYASTYRVVSVLTVLHQDWLNGKEYKCKVSNKALPAPIEKTISKAKGQPREPQVYTLPPSRCELTKNQVSLSCAVKGFYPSDIAVEWESNGQPENNYKTTPPVLDSDGSFFLVSKLTVDKSRWQQGNVFSCSVMHEALHNHYTQKSLSLSPDYKDDDDK
chain: EPKSSDKTHTCPPCPAPELLGGPSVFLFPPKPKDTLMISRTPEVTCVVVDVSHEDPEVKFNWYVDGVEVHNAKTKPREEQYNSTYRVVSVLTVLHQDWLNGKEYKCKVSNKALPAPIEKTISKAKGQPREPQVCTLPPSRDELTKNQVSLWCLVKGFYPSDIAVEWESNGQPENNYKTTPPVLDSDGSFFLYSKLTVDKSRWQQGNVFSCSVMHEALHNRYTQKSLSLSP
light: DIVMTQSPLSLPVTPGEPASISCRSSQSLVHSNRNTYLHWYQQKPGQAPRLLIYKVSNRFSGVPDRFSGSGSGTDFTLKISRVEAEDVGVYYCGQGTQVPYTFGQGTKLEIKRTVAAPSVFIFPPSDEQLKSGTASVVCLLNNFYPREAKVQWKVDNALQSGNSQESVTEQDSKDSTYSLSSTLTLSKADYEKHKVYACEVTHQGLSSPVTKSFNRGEC
notes: one-arm antibody

KD ratio (KD of CE115HA000/KD of altered form): 1.17
B2: CE115HA000 D72V (antibody, human IgG1, kappa, L234A L235A, N297A, name in Kabat numbering)
heavy: B1 heavy with E75V
chain: B1 chain
light: B1 light
notes: one-arm antibody

KD ratio (KD of CE115HA000/KD of altered form): 0.79
B3: CE115HA000 D73R (antibody, human IgG1, kappa, L234A L235A, N297A, name in Kabat numbering)
heavy: B1 heavy with E75D, D76R
chain: B1 chain
light: B1 light
notes: one-arm antibody

KD ratio (KD of CE115HA000/KD of altered form): 0.78
B4: CE115HA000 D73G (antibody, human IgG1, kappa, L234A L235A, N297A, name in Kabat numbering)
heavy: B1 heavy with E75D, D76G
chain: B1 chain
light: B1 light
notes: one-arm antibody

KD ratio (KD of CE115HA000/KD of altered form): 0.73
B5: CE115HA000 D73A (antibody, human IgG1, kappa, L234A L235A, N297A, name in Kabat numbering)
heavy: B1 heavy with E75D, D76A
chain: B1 chain
light: B1 light
notes: one-arm antibody

KD ratio (KD of CE115HA000/KD of altered form): 0.78
B6: CE115HA000 D73T (antibody, human IgG1, kappa, L234A L235A, N297A, name in Kabat numbering)
heavy: B1 heavy with E75D, D76T
chain: B1 chain
light: B1 light
notes: one-arm antibody

KD ratio (KD of CE115HA000/KD of altered form): 0.86
B7: CE115HA000 D101A (antibody)
heavy: B1 heavy with E75D, D110A
Fc: B1 chain
light: B1 light
notes: one-arm antibody

KD ratio (KD of CE115HA000/KD of altered form): 0.7
B8: CE115HA000 D73N (antibody, human IgG1, kappa, L234A L235A, N297A, name in Kabat numbering)
heavy: B1 heavy with E75D, D76N
chain: B1 chain
light: B1 light
notes: one-arm antibody

KD ratio (KD of CE115HA000/KD of altered form): 0.56
B9: CE115HA000 D73E (antibody, human IgG1, kappa, L234A L235A, N297A, name in Kabat numbering)
heavy: B1 heavy with E75D, D76E
chain: B1 chain
light: B1 light
notes: one-arm antibody

KD ratio (KD of CE115HA000/KD of altered form): 0.74
B10: CE115HA000 D73K (antibody, human IgG1, kappa, L234A L235A, N297A, name in Kabat numbering)
heavy: B1 heavy with E75D, D76K
chain: B1 chain
light: B1 light
notes: one-arm antibody
